Reference: article PMC7737156, “A 3.4-Å cryo-electron microscopy structure of the human coronavirus spike trimer computationally derived from vitrified NL63 virus particles” (QRB Discovery, 2020)

Target: the molecule itself
Assay: cryo-EM structure; single-particle cryo-EM of purified, vitrified HCoV-NL63 virions without chemical fixative; spikes extracted computationally from the micrographs; refined with C3 symmetry (3.4 Å) and without (3.7 Å); virus resuspension buffer 20 mM Tris pH 8.0, 120 mM NaCl, 1 mM EDTA

B1: HCoV-NL63 coronavirus spike glycoprotein (natural protein)
chain: CNSNANLSMLQLGVPDNSSTIVTGLLPTHWFCANQSTSVYSANGFFYIDVGNHRSAFALHTGYYDANQYYIYVTNEIGLNASVTLKICKFSRNTTFDFLSNASSSFDCIVNLLFTEQLGAPLGITISGETVRLHLYNVTRTFYVPAAYKLTKLSVKCYFNYSCVFSVVNATVTVNVTTHNGRVVNYTVCDDCNGYTDNIFSVQQDGRIPNGFPFNNWFLLTNGSTLVDGVSRLYQPLRLTCLWPVPGLKSSTGFVYFNATGSDVNCNGYQHNSVVDVMRYNLNFSANSLDNLKSGVIVFKTLQYDVLFYCSNSSSGVLDTTIPFGPSSQPYYCFINSTINTTHVSTFVGILPPTVREIVVARTGQFYINGFKYFDLGFIEAVNFNVTTASATDFWTVAFATFVDVLVNVSATNIQNLLYCDSPFEKLQCEHLQFGLQDGFYSANFLDDNVLPETYVALPIYYQHTDINFTATASFGGSCYVCKPHQVNISLNGNTSVCVRTSHFSIRYIYNRVKSGSPGDSSWHIYLKSGTCPFSFSKLNNFQKFKTICFSTVEVPGSCNFPLEATWHYTSYTIVGALYVTWSEGNSITGVPYPVSGIREFSNLVLNNCTKYNIYDYVGTGIIRSSNQSLAGGITYVSNSGNLLGFKNVSTGNIFIVTPCNQPDQVAVYQQSIIGAMTAVNESRYGLQNLLQLPNFYYVSNGGNNCTTAVMTYSNFGICADGSLIPVRPRNSSDNGISAIITANLSIPSNWTTSVQVEYLQITSTPIVVDCATYVCNGNPRCKNLLKQYTSACKTIEDALRLSAHLETNDVSSMLTFDSNAFSLANVTSFGDYNLSSVLPQRNIRSSRIAGRSALEDLLFSKVVTSGLGTVDVDYKSCTKGLSIADLACAQYYNGIMVLPGVADAERMAMYTGSLIGGMVLGGLTSAAAIPFSLALQARLNYVALQTDVLQENQKILAASFNKAINNIVASFSSVNDAITQTAEAIHTVTIALNKIQDVVNQQGSALNHLTSQLRHNFQAISNSIQAIYDRLDSIQADQQVDRLITGRLAALNAFVSQVLNKYTEVRGSRRLAQQKINECVKSQSNRYGFCGNGTHIFSIVNSAPDGLLFLHTVLLPTDYKNVKAWSGICVDGIYGYVLRQPNLVLYSDNGVFRVTSRVMFQPRLPVLSDFVQIYNCNVTFVNISRVELHTVIPDYVDVNKTLQEFAQNLPKYVKPNFDLTPFNLTYLNLSSELKQLEAKTASLFQTTVELQGLIDQINSTYVDLKLLNRFENYIKWPWWVWLIISVVFVVLLSLLVFCCLSTGCCGCCNCLTSSMRGCCDCGSTKLPYYEFEKVHVQ
modifications: glycosylated; N-linked glycan density at Asn24 and Asn203 and O-linked glycan density at Ser496 newly seen here, besides the glycan sites seen before in EMD-8331
notes: Spike glycoprotein of human coronavirus NL63, membrane-anchored on native virions, pre-fusion state; model built from PDB 5SZS with residues 883-889 and 993-1000 added; Native spike on the virion, no stabilising mutations and no tags; the cited ectodomain structure PDB 5SZS is another construct (purified ectodomain made in insect cells); also called S trimer; HCoV-NL63 spike (S) trimer; source: …
stoichiometry N: 3
